Measured values taken from paper PMC12474313.

Target: rRABV-G-XVIII (rabies virus glycoprotein ectodomain fused to the human collagen XVIII trimerization domain) (rabies virus strain CVS-11 | human)
Assay: SEC

rRABV-G-XVIII (rabies virus glycoprotein ectodomain fused to the human collagen XVIII trimerization domain)
percent trimeric protein: 96.3% | stoichiometry N: 3
